Reference: US20090018083A1

Legend:
[1] = biological target: BCL6-3C BTB domain (human BCL6 residues 5-129 with C8Q/C67R/C84N) (human) (UniProt P41182); experiment: SPR, biotinylated peptide on streptavidin chip, BCL6-3C BTB domain injected
[2] = biological target: GAL4-BTB^BCL6 (GAL4 DNA binding domain fused to the wild-type BCL6 BTB domain) (human); experiment: cell-based or functional assay

Sequence of N-CoR^1351-1383 peptide, biotinylated, immobilised for SPR (Q60974 1351-1383): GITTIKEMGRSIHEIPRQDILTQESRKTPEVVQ

| fold stronger affinity relative to SMRT^1414-1441 [1] [fold] | enhancement of repression in reporter assays [2] [fold] | Substance |
| --- | --- | --- |
| 2.5 |  | N-CoR^1351-1383 peptide, biotinylated, immobilised for SPR |
|  | 2 to 3 | full-length BCoR (from UniProt Q6W2J9 1-1721) |
